Assay results from patent US20160208003A1 (AFFITECH RESEARCH, published 2016).

T1: human CC chemokine receptor 4 (CCR4) (human, UniProt P51679 1-360)
T1 sequence (looked up): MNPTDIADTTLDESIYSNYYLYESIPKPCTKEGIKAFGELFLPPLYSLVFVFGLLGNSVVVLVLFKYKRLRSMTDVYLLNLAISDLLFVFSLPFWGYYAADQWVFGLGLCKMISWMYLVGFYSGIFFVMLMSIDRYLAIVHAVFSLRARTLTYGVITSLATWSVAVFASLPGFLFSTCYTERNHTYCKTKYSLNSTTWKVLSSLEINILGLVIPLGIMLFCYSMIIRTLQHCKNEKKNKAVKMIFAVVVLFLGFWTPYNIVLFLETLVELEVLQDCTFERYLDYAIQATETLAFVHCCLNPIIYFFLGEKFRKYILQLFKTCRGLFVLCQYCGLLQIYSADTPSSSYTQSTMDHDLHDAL


Tests used:
[1] = target: T1, human CC chemokine receptor 4 (CCR4); test: cell-based or functional assay
[2] = target: T1, human CC chemokine receptor 4 (CCR4); test: flow cytometry, IgG titration on CCRF-CEM cells, anti-human-PE, MFI
[3] = target: T1, human CC chemokine receptor 4 (CCR4); test: calculated from the IC50; CCRF-CEM cells, competitor 0.7 nM biotinylated IgG 9E
Procedure: (§1) DT40 and CCRF-CEM cells were cultivated as described in Example 2. The cells were harvested from culture flasks, washed 2 times with PBS (400×g, 5 min, 4° C.) and resuspended in PBS containing 0.2% BSA and 0.09% NaN3. 1×10^5 cells per well were aliquoted into V-shaped 96-well plates (Griner Bio-One, Frikenhausen, Germany). Cells were centrifuged (400×g, 5 min, 4° C.) and resuspended in 50 μl IgG 9E10J or KM3060var (dilution series starting at 5 μg/ml) mixed with biotinylated competitor antibody 9E (0.1 or 0.5 μg/ml). The cells were incubated for 2 hours at 4° C., mixing with a pipette every 45 min. The cells were washed three times with 150 μl PBS with 0.2% BSA and 0.09% NaN3 and stained with 3 μg/ml streptavidin PE (BD Biosciences) for 45 minutes at 4° C. Cells were washed, resuspended in 200 μl PBS with 0.2% BSA and 0.09% NaN3, and transferred to a U-shaped 96 well Costar (Corning, Schiphol-Rijik, The Netherlands) plate for flow cytometry using an FACS Canto II flow cytometer (BD Biosciences, Heidelberg, Germany).

[4] = target: T1, human CC chemokine receptor 4 (CCR4); test: calculated from the IC50; DT-40-CCR4+ cells, competitor 0.7 nM biotinylated IgG 9E
Procedure: as §1

[5] = target: T1, human CC chemokine receptor 4 (CCR4); test: flow cytometry, saturation titration of IgG on CCRF-CEM cells; one site-specific binding fit
[6] = target: T1, human CC chemokine receptor 4 (CCR4); test: flow cytometry competition on CCRF-CEM cells; unlabelled IgG titrated, competitor 0.7 nM biotinylated IgG 9E
Procedure: (§2) Further competition experiments were carried out to assess whether or not the test antibodies recognise the same or overlapping epitopes, and to determine their relative affinities for CCR4. Antibodies 9E10J, 9E and KM3060var were tested using labelled 9E as a competitor.
as §1

[7] = target: T1, human CC chemokine receptor 4 (CCR4); test: flow cytometry competition; antibody titrated, competitor biotinylated MDC; cell line not given
Procedure: The cells were harvested from culture flasks, washed 2 times with PBS (400×g, 5 min, 4° C.) and resuspended in PBS containing 0.2% BSA and 0.09% NaN3. 1×10^5 cells per well were aliquoted into V-shaped 96-well plates (Greiner Bio-One, Frikenhausen, Germany). Cells were centrifuged (400×g, 5 min, 4° C.) and resuspended in 50 μl IgG, single chain or unlabeled ligand (1:10 dilution series starting on 100/500/26, 4 μg/ml) mixed with a fixed concentration of biotinylated ligand (10 or 20 nM, see legend to FIG. 24). The cells were incubated for 2 hours at 4° C. and mixed with a pipette every 45 min. The cells were washed three times with 150 μl PBS with 0.2% BSA and 0.09% NaN3 and stained with 3 μg/ml streptavidin PE (BD Biosciences) for 45 minutes at 4° C. Cells were washed, resuspended in 200 μl PBS with 0.2% BSA and 0.09% NaN3, and transferred to a U-shaped 96 well Costar (Corning, Schiphol-Rijik, The Netherlands) plate for flow cytometry using an FACS Canto II flow cytometer (BD Biosciences, Heidelberg, Germany). […] Apparent binding affinities (KD) were calculated according to the following equation derived from previously described methods (Kipriyanov et al, 1997b; Schodin & Kranz, 1993): […]

[8] = target: T1, human CC chemokine receptor 4 (CCR4); test: flow cytometry competition on DT-40-CCR4+ cells; unlabelled IgG titrated, competitor 0.7 nM biotinylated IgG 9E
Procedure: as §2, §1

[9] = target: T1, human CC chemokine receptor 4 (CCR4); test: flow cytometry competition on DT-40-CCR4+ cells; unlabelled IgG titrated, competitor 3.3 nM biotinylated IgG 9E
Procedure: as §2, §1

ADCC of CCRF-CEM cells, EC50 (mean, N=5) [1] [µg/mL]	EC50 (read off the curve) [2] [nM]	Kd [3] [nM]	Kd [4] [nM]	Kd [5] [nM]	IC50 [6] [nM]	IC50 [7] [nM]	IC50 [8] [nM]	IC50 [9] [nM]	ADCC of CCRF-CEM cells, EC50 (mean, N=2) [1] [µg/mL]	Binder
0.0247	~0.1	0.06	0.05	0.13	0.07	0.85	0.06	0.15		9E10J IgG (full length human IgG1, lambda) (antibody, V domains shown, also called IgG 9E10J; unmodified 9E10J) VH: QVQLVQSGAEVKKPGSSVKVSCKASGGTFSSYAISWVRQAPGQGLEWMGGIIPIFGTANYAQKFQGRVTMTRDTSTSTVYMELSSLRSEDTAVYYCARRGGSYFDYWGQGTLVTVSS VL: SYVLTQPPSASGTPGQSVTISCSGSTSNIGSHYVFWYQQLPGTAPRLLIYRNHQRPSGVPDRLSGSKSGTSASLAISGLRSEDEADYYCAVWDDTLSGWVFGGGTKLTVLG
	~0.3	0.33	0.39	0.37	0.38	3.9	0.44	3.5	0.186	9E IgG (full length human IgG1, lambda) (antibody, V domains shown, also called IgG 9E; IgG1 9E) VH: QVQLVQSGAEVKKPGSSVKVSCKASGGTFSNYAISWVRQAPGQGLEWMGGIIPIFGTANYAQKFQGRVTITADESTSTAYMELSSLRSEDTAVYYCARRGGSYFDYWGQGTLVTVSS VL: SYVLTQPPSASGTPGQSVTISCSGSTSNIGSHYVFWYQQLPGTAPRLLIYRNHQRPSGVPDRLSGSKSGTSASLAISGLRSEDEADYYCAVWDDTLSGWVFGGGTKLTVLG
